Results on one substance are retold here after PMC6682550.

This experiment deals with 6xHis-tag M1 protein from Influenza A/FPV/Rostock/34, labelled with Alexa Fluor 488 (M1-Alexa488) (Influenza A virus A/FPV/Rostock/34) (UniProt P03487). Nature of the experiment: […], pH 7.4, NaCl ~45 mM; […].

Consider “6xHis-tag M1 protein from Influenza A/FPV/Rostock/34, labelled with Alexa Fluor 488 (M1-Alexa488) (from UniProt P03487 1-252) (natural protein)”, for which the stoichiometry N turned out to be 15.

As a reminder, the stoichiometry N is the number of molecules, sites or subunits per partner or assembly.
